The record followed here is the DeepSol protein solubility set.

The nature of the series: soluble on expression in E. coli; label from the status in PepcDB or PDB records.
Take “MAHHHHHHMEAGTSPIRAGSSDGGGSVRGDIFRRHSVNSGENNMNDNKDNDSNTEWSEQFRLIARRMSRALLRNPHPDVQTDKRVMYGVLYELFEQWSERQQRAHSVSLTVEQVGSILRYGEQTLRQASLTAPALNKAQVVVDLIAASPLITIGALTQELRGLQPPVVLTPMAEVLELARLLDVSQGVRTPVGAVNLVHFIALSSTLCPAPDMGALLLLVASNVKRCHLLCAAIYYEWAMIDAQNREGLLLLSRELEEKHQQMCEGFTVDILTPLLTGSFEPFGARPTDPVAVDYLGMGSLPCTGTAEEQQRCHQLAPPSGNELEPTCEDSDTGGHGEGDCESSVEDEYDSDCRDTVDTEFWLRLSS”: the “soluble on expression in E. coli” value is given as “not soluble”. The result for “MSKNYHIAVLPGDGIGPEVMAQALKVMDAVRSRFDMRITTSHYDVGGIAIDNHGHPLPKATVEGCEQADAILFGSVGGPKWENLPPESQPERGALLPLRKHFKLFSNLRPAKLYQGLEAFCPLRADIAANGFDILCVRELTGGIYFGQPKGREGSGQYEKAFDTEVYHRFEIERIARIAFESARKRRRKVTSIDKANVLQSSILWREIVNDVAKTYPDVELAHMYIDNATMQLIKDPSQFDVLLCSNLFGDILSDECAMITGSMGMLPSASLNEQGFGLYEPAGGSAPDIAGKNIANPIAQILSLALLLRYSLDANDAATAIEQAINRALEEGVRTGDLARGAAAVSTDEMGDIIARYVAEGV” reads “soluble”. With “MILMAIGLLMGSYYAVEWYKGKSSAQELTNEEIKSFKNIQHNQLPYETLVTSQVPSSQTEHKEGEKVAMLNIPKLKKKFSIYWGADDATLKKGVGMFVSDVTTTPSGGGHTVLSGHRDTVFTDLGQLKEKDTLVLEYDNKTYTYEIQKIWITHADDRTVIIKKEEPILTLTTCYPFDYIGDAPDRYIIEAKLTGSYSK” the entry was “not soluble”; with “MKHTTKQMEILSDIRTLLHKKEEHLKRQNEKFLRETGVSSMSLSELHVIECIGKNGLMNVTAITTEMGMTKGAISKICTKLFQKQFVEKLQMLDNQKEIFFSLTESGNEIYKAHEKLHKQAEEKWLLLLDGYTKEEQDFIQRFIKDVSGHLEI”, “not soluble”.

In the case of “MRGSHHHHHHTDPALRAAIIPKNYARLESGYREKALKIYPWVCGRCSREFVYSNLRELTVHHIDHDHTNNPEDGSNWELLCLYCHDHEHSKYTEADQYGTTVIAGEDAQKDVGEAKYNPFADLKAMMNKKKGLCGR”, the “soluble on expression in E. coli” value was “soluble”. With “TLAFCRFSAPGIYFLEKLFHPVASMLVRSTTFLNKHFAKKNHNISVDELSHALELTDKAEISEENNILEGIIRFGGETVKEVMTSRLDMVDLDVRTPFKEVMQCIIENAYSRIPIYSGSRDNIKGVLYIKDLLPHVNKGDNFRWQSLIRPAYFVPETKMIDDLLRDFQANKIHIAIVVDEFGGTSGLVTMEDIIEEIVGEIHDEYDD” the entry was “not soluble”. With “LTCESVRSTDSPHFAMLDALYARAFPCHEQRESEAKRQALSHPRYALEAWFDEGVFVGLSGCWQFAGYGYIEHLAIDDTLRSRGYGKQLLAQILTRAPLTILEIDPLTTAIAHKRLRFYQSMGFHANPWAHHHPSYHQGIADHELLVLSYPQP” the entry was “not soluble”; with “MKRIVVKVGSHVISEENTLSFERLKNLVAFLAKLMEKYEVILVTSAAISAGHTKLDIDRKNLINKQVLAAIGQPFLISVYNELLAKFNKLGGQILLTGKDFDSRKATKHAKNAIDMMINLGILPIINENDATAIEEIVFGDNDSLSAYATHFFDADLLVILSDIDGFYDKNPSEFSDAKRLEKITHIKEEWLQATIKTGSEHGTGGIVTKLKAAKFLLEHNKKMFLASGFDLSVAKTFLLEDKQIGGTLFE”, “soluble”. With “MGSDKIHHHHHHMVETKLIIRADDLGYSDAVNIGIERSVHKGIINNVGVMVNMPTTLDGLSMIRDTKVCLGLHVVISSGRPLLNPKFIPSIVDDDGAFLSSADYRKAPNDFVNLDEVILEIEAQYQKFIELVGRKPDYFEGHAVVSDNFFKGLLVVAKCHQLNLLQVTLNSGRPSLLFKGHSLHVFMESMNKDYNPYQTLKRAVLSSCDEEYPMMICHPGYLDDYLLKHSSLTTPRTKEVEMLTDPQVRAWLYQHQVRLIKYNEI” the entry was “not soluble”; with “SVDDSKYQCVKLNDGHFMPVLGFGTYAPAEVPKSKALEAVKLAIEAGFHHIDSAHVYNNEEQVGLAIRSKIADGSVKREDIFYTSKLWSNSHRPELVRPALERSLKNLQLDYVDLYLIHFPVSVKPGEEVIPKDENGKILFDTVDLCATWEAMEKCKDAGLAKSIGVSNFNHRLLEMILNKPGLKYKPVCNQVECHPYFNQRKLLDFCKSKDIVLVAYSALGSHREEPWVDPNSPVLLEDPVLCALAKKHKRTPALIALRYQLQRGVVVLAKSYNEQRIRQNVQVFEFQLTSEEMKAIDGLNRNVRYLTLDIFAGPPNYPFSDEY”, “soluble”. For the sequence “MGSDKIHHHHHHMSREINAGGHHFLYGGISRGVHYWDNKDFSEQSLRLSFGHQNRSVTRSFGTVPFVGQNLLGGSRYNFAGGFNADFSRRLGERWRLTLNAGNMWKHYQEDRTAARYGSHMPLAGATLMYSAPKDRLLYGGADWPHDMTKEAEQASVRKGLRVGAVKTFDGGLGLRANLRYTRRTFDAPGTIVYRFPRKDHEYQANLSLRHDKISWKGFTPQLNFRYLKIGSNMKSFYTRKNTQIFMSVEKDFK”, the “soluble on expression in E. coli” value is given as “not soluble”. The result for “MRWRADFLSAWAEALLRKAGADEPSAKAVAWALVEADLRGVGSHGLLRLPVYVRRLEAGLVNPSPTLPLEERGPVALLDGEHGFGPRVALKAVEAAQSLARRHGLGAVGVRRSTHFGMAGLYAEKLAREGFVAWVTTNAEPDVVPFGGREKALGTNPLAFAAPAPQGILVADLATSESAMGKVFLAREKGERIPPSWGVDREGSPTDDPHRVYALRPLGGPKGYALALLVEVLSGVLTGAGVAHGIGRMYDEWDRPQDVGHFLLALDPGRFVGKEAFLERMGALWQALKATPPAPGHEEVFLPGELEARRRERALAEGMALPERVVAELKALGERYGVPWRDDA” reads “soluble”.

As to “QMLVNKARLANLNVSLEEKVMQRTVVLSEANHKLQQTVRQYEQSQQELRQTQQELTQAAKLALLGELSASINHEINQPLAALRTYTENSQRLLSMERYPMVADNLNKMLSLNETIAEVIARLKVFTRKTSHEPHNEVSILHDAVHNATSILSNKLIKQGVTLKVPTIDHEVRLAIHSVE”, the “soluble on expression in E. coli” value is recorded as “not soluble”.

As to “MAHHHHHHMGDNILDQKVDLFGGKGIFTKELDEELIKGKVHICVHSLKDVPMELPEQVQLSCFLKRDTINDAFLSVKYGTLEDMNKMKMANKMEEGSYQPKGMSQRVINQNVKRDNYEGDHYDNFIPTIGTSSLRRSSQIKYKYKNVAVKNMRGNINTRIAKLCNGQYDAIIIAKCGLERLTTKKGIRNIIGGKNKVTPKNFLINYNNTEINLTSLHIQQINKRTIYPALCQGIIAVSSHKSDKYISDVLKNINDEKAQIMANIERSFLYQIEGNCMMPIGGYAKIVNGEIVFNAVINDIHGREKYHVREVGKVESYNEIAVMAATKMKEKIGTHRFNKIREEAAQYYA”, the “soluble on expression in E. coli” value is listed as “not soluble”. The result for “MSLNEAGIVLLPKSRQLPALSMIDQNGAAVALDGLKDQWTLMFFGYTFCPDICPTTLAQIKQIRSELPTAAVERMRVVLVSVDPNRDTPQQLKEYLSYFDPQYIGLTAPVADIQKLANSVSIPFIPADTSKPNYFVDHSGNLALIGPDGTQRGFIRAPLNNQKLVKQLPRLLERDEGHHHHHH” reads “soluble”.

Turning to “MHAVKPFPLCNLPLISLREVIDYLPTFDIFVLLHTSQKTKKLISSNIRDFVARQEHYKKQDISVRVVAERSYMEVIAISPKIRSTRFKRNDINQALEAAKYLVDHFKCDTDSVWLRITHRKEDETRQIITSVKEINLNITNLQFRHERISSDLFNWLLENCVQDVHIWVLEPQSITVSNWNVFEKVRKYNFQGINFSSHQANMLLKSLKSNNNFVQFRANDIENSLDLSVVFEDTGATAKMDTYRSVVFRPGLTVLKEYKPSKSRFVTENNNGGEMSICITEHAFSFQSN”, the “soluble on expression in E. coli” value is listed as “not soluble”. With “GPLGSMTGPSVHDRALGAFLGLAVGDALGATVEFMTKGEIAQQYGIHRKMTGGGWLRLKPGQITDDTEMSLALGRSLAAKGTLDVADICEEFALWLKSRPVDVGNTCRRGIRRYMHEGTTTAPYSEGDAGNGAAMRCLPAALATLGHPADLEPWVLAQARITHNHPLSDAACLTLGRMVHHLIGGRGMKACREEANRLVHQHRDFHFEPYKGQSSAYIVDTMQTVLHYYFVTDTFKSCLIQTVNQGGDADTTGALAGMLAGATYGVDDIPSGWLSKLDMKVEREIRRQVDALLALAGLD”, the “soluble on expression in E. coli” value is given as “soluble”. The result for “MSLNDFRPNPSLLLETSWEVCNKQGGIYTVLTSRAHEMMKRHDGRIIFIGPLLTEQEDLPTDFENTVPAILEDWHRDAAPSLDLRYVCGSWRTPGSPPVVLVDFEPLHAQKATLYYEMWEHFGIQSDKGYGDYDEASLFGIAAAQTMHSLCEYLCPEDQPAIGIFNEWMLGMGLLYSKRKTPRLKTLFLTHATTTGRSIAGNNKALYAYMPGYNGDQMAAELGVEAKHGIEKAAAHQSDTFATVSELTAKECRQLLERDPMVLPNGFEPNFVPQGEEYERRRAEARKRLLHVAEHLTGKQLPADTLLIATSGRYEYRNKGIDLFIDAASEAGRSGKLRTPTLAFILVPAWVAGARADLQYLLNHPDPTEYKEKPLPYPFLTHWLHDIQEQTISKRLDESAGSAGEVSFIFVPCYLNRKDGIFGLGYYDLLIGMDLTVFPSYYEPWGYTPLESIAFGIPTVTTDLSGFGLWAMQERGSRNDFSTGVAVIKRTDDNYAEAVQAIADLLYRWPAESTDRTACRLAAMQTASHAEWRLFYNRYEEAYSELLSRDEGHHHHHH” reads “soluble”; that for “KVKELNLHELCAVCLEDFKPRDELGICPCKHAFHRKCLIKWLEVRKVCPLCNMPVLQLAQL”, “soluble”. In the case of “MLFDLGYVDLQDRSNAEILTHLITKKAILLLGDKQNPADLLAIQDEVQERYLVNFSLFQSMPDFWGLEQNFPIMPLDRLDEEPTRSASIWDITCDSDGEISYSKDKPLFLHDVDVEKENYFLGFFLVGAYQEVLGMKHNLFTHPTEAIISINEKGYEVEGIIEAQSILDTLEDLDYDIHAILEHHHHHH”, the “soluble on expression in E. coli” value is recorded as “not soluble”. The result for “MLALSRGRYLARPAAGLEDLRRAQELRWLAFHARRAGSGASGLDADRFDGACSHMLIEEAESGALVGCFRFLTFASGREIGRSYSAQFYELSALEGFAGPMVEMGRFCIHPDRRDPDILRVAWGALTQHVDRAGIEMLFGCSSFHGTEPEAYLDTFAMLKERHLAPPRWLPRVKAASVYRFAQRLARREPDARRAMLQMPPLLRTYLMMGGWVSDHAVVDREMDTLHVFTGLEIGAIPARRARALRAVAG” reads “not soluble”; that for “MLTVALLALLCASASGNAIQARSSSYSGEYGSGGGKRFSHSGNQLDGPITALRVRVNTYYIVGLQVRYGKVWSDYVGGRNGDLEEIFLHPGESVIQVSGKYKWYLKKLVFVTDKGRYLSFGKDSGTSFNAVPLHPNTVLRFISGRSGSLIDAIGLHWDVYPTSCSRC”, “soluble”.
